Measurements reported in patent US20160144050A1 (PHAROSGEN, published 2016).
Primed or numbered codes have the meaning given here. No end group written: not given here. *: point of attachment. Hexanoyl(6-maleimido) = O=C1C=CC(=O)N1CCCCCC(=O)*; PABC′ = p-aminobenzylcarbamate

B1: maleimide-KGDEVD-PABC-doxorubicin (SEQ ID NO: 10) (peptide)
peptide: K(Hexanoyl(6-maleimido))GDEVD-{PABC′-doxorubicin}
modifications: not fully specified (N-terminus)
notes: Peptide-drug prodrug conjugate
B2: recombinant human caspase-3 (protein)
chain: SGISLDNSYKMDYPEMGLCIIINNKNFHKSTGMTSRSGTDVDAANLRETFRNLKYEVRNKNDLTREEIVELMRDVSKEDHSKRSSFVCVLLSHGEEGIIFGTNGPVDLKKITNFFRGDRCRSLTGKPKLFIIQACRGTELDCGIETDSGVDDDMACHKIPVEADFLYAYSTAPGYYSWRNSKDGSWFIQSLCAMLKQYADKLEFMHILTRVNRKVATEFESFSFDATFHAKKQIPCIVSMLTKELYFYH

Tests used:
[1] = target: T1, human serum albumin (HSA) (human, UniProt P02768 25-609); assay: analytical HPLC; 100 µM conjugate with 700 µM purchased HSA in PBS, room temperature; covalent binding
T1 construct: also called commercially available human serum albumin; human serum albumin in human plasma
Description: A human serum albumin (HSA) solution was prepared in PBS at final concentration of 700 μM. […] The samples were subjected to analytical HPLC (see FIG. 21).

[2] = target: HSA-maleimide-KGDEVD-PABC-doxorubicin (SEQ ID NO: 28)

Binder	binding result [1]	HPLC monitored cleavage; liberation of free doxorubicin [2]
B1	binds	
B2		The free doxorubicin was completely liberated from the HSA-maleimide-KGDEVD-PABC-doxorubicin (SEQ ID NO: 28) conjugate within 1 hour
